Source: patent publication US11884740

Assays:
[1] = molecular target: C1q Receptor in the complement system (rabbit serum as the source of complement) (rabbit); test: cell-based or functional assay
[2] = molecular target: FcγIIIA Receptor on the effector cells (human) (UniProt P08637); test: cell-based or functional assay
FcγIIIA Receptor on the effector cells (human), sequence (P08637 17-254): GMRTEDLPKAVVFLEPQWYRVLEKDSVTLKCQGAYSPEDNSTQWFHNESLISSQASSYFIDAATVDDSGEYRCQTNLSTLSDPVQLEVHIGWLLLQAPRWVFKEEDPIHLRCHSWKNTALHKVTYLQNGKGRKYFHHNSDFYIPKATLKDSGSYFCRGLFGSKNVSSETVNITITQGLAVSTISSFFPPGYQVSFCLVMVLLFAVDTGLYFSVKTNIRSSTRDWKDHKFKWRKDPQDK

| Substance | EC50 (CDC, Jeko-1 cells, rabbit complement) [1] [µg/mL] | EC50 (ADCC, Raji targets, KILR CD16a effector cells) [2] [ng/mL] | EC50 of ADCC assay Using Primary NK Cells (Raji targets, LDH release) [2] [µg/mL] |
| --- | --- | --- | --- |
| ARZERRA (ofatumumab) (antibody) | 0.353 | 0.0741 | 500 |
| GAZYVA (obinutuzumab) (antibody) |  | 0.00658 | 19 |
| OCREVUS (ocrelizumab) (antibody) | 1.21 | 0.0608 |  |
| RITUXAN (rituximab) (antibody) | 0.245 | 5.46 | 1390 |
